One may read the stoichiometry N as a count of units in the complex or per binding partner.

Stoichiometry N data for one substance are collected here from paper doi:10.1101/2020.06.24.168591.

The test addresses E108D mutant of Thermoplasmatales archaeon SG8-52-1 heliorhodopsin (TaHeR) (Thermoplasmatales archaeon SG8-52-1). Put plainly: crystal structure.

“E108D mutant of Thermoplasmatales archaeon SG8-52-1 heliorhodopsin (TaHeR) (natural protein)” displayed a stoichiometry N of 2.
